Experimental data as given in a protein production outcome set (Wang et al. 2014).

Experiment: label from the status in PepcDB records

MKFWRPGITGKLFLAIFATCIVLLISMHWAVRISFERGFIDYIKHGNEQRLQLLSDALGEQYAQHGNWRFLRNNDRFVFQILRSFEHDNSEDKPGPGMPPHGWRTQFWVVDQNNKVLVGPRAPIPPDGTRRPILVNGAEVGAVIASPVERLTRNTDINFDKQQRQTSWLIVALATLLAALATFLLARGLLAPVKRLVDGTHKLAAGDFTTRVTPTSEDELGKLAQDFNQLASTLEKNQQMRRDFMADISHELRTPLAVLRGELEAIQDGVRKFTPETVASLQAEVGTLTKLVDDLHQLSMSDEGALAYQKAPVDLIPLLEVAGGAFRERFASRGLKLQFSLPDSITVFGDRDRLMQLFNNLLENSLRYTDSGGSLQISAGQRDKTVRLTFADSAPGVSDDQLQKLFERFYRTEVPATVPAGSGLGLAICLNIVEAHNGRIIAAHSPFGGVSITVELPLERDLQREV
protein production: failed

MKFYIIRHAKVNMRWPKKCTSDEFNQACKKYDGADIVAFQGSLELPVSNIYTSELIRTKQTAQQLFPLQSYQIDKRLNEVPLKAAFSSKIKLPLIFWNILGRLQWLFNSSKQEGIKASKERAEKFCDDLIYKGEDAILITHGFFMITLLKELKKRGFIEKDNGFNFDNLQVIEVKKRLLVY
protein production: failed

MKGDRERQADLSPREGPSVPRPVLLQTEPRSVFPGDTSRPWSPAALPARAPGDRWCGRRRRSPGNASYLDSDISEKSRSASEEEKSHALGACHCAENAFQDSQKSLVPSRGQKMTSGTKAKVPLTALSQKWKRDREQTLEAAYVPVVVDPRGQNPDTSIRFSFYNSQYSNSLNPFYTLQKPTCGYLYQRETDHTRKRFDVPPANLILWRT
protein production: failed

MKGNALCTGEPVMTIETRGGGSEDIAVLPLDPTGNITRLFIRERCNDSSDPECKTGQWRLGSVDISRENTPASTRYAWRPGNNASEDDFEPLGMSLVPGNTPGEGTLFVIDIARPQSVRIWQLDISGGEITKATLATPADTQTGARLTAANSLQAVRNDDSRSFHLTITRFDEYGLLPFRPTPWPALVRINNGVIQPPPAQDFRNANGIIRPCAGCDLVIASYWERRLRFVSKENGEIGEYASAELPIRPDNLRLDGERILIAGQRRVDLTALNLLVSPHIPSPSGVYAIDTRSLGPDTVPTLLWEGGWKHGHSVATAVALPGNRLAIGQINTPGILIADCSPLEHHHHHH
protein production: failed

MKGSLIVIVFFCVGCIMGVFNKFQFDTHTVSMYILYALMLQVGISIGSNKNLKAIISHLHPKMLLIPLGTITGTLLFSALASILLSQWSVFDCMAVGSGFAYYSLSSILITQFKEPTIGIQLATELGTIALLTNIFREMMALLGTPLIKKYFGKLAPISAAGVNSMDVLLPSISRYSGKEMIPIAILHGILIDISVPVFVSFFCNL
protein production: failed

MKHAKDIKVHKFNGPVKNDGKISVLVLGADKASGGKSRSDSIMVVQYDYIHKKMKMMSVMRDIYAEIPGYQNYKINAAYSLGGPELLRKTLNKNLGINPEYYAVIDFTGFEKMIDELEPNGVPMDVEKDMSENIGVSLKKGHHRLNGKELLGYARFRHDEEGDFGRVRRQQQVMQTLKKELVTPSSVIKLPKVAGILRGYINTSMPNSAIFQTGISYGIRGDKNVESLTVPINNSYQNINTNNDGSALEIDKEKNKKAVKEFLNNLEHHHHHH
protein production: failed

MKHEAIGHDTIAKFLLTSGSTGNPKAVINTQRMICANQVMIREAMAFLKDEPPVIVDWLPWNHTFGGNHNIGLTLFNGGSMYIDDGKPTPAGIASTIRNLREIAPTVYFNVPKGYESLLPVLREDQQLRKLFFSRLHAMFFSGASLAAHVWNGLDEVAVAETGARVPMLTGLGATETAPFFMSVTPQTSRSGHVGLEHHHHHH
protein production: failed

MKHFDYSRGLKAPYSLQVIKSPKGKIVWYFAQPLSLAYLVMLFLGIVLTGIFWKFVPLPLIFGINLNLMIMLYFPNKVARWYTETEFEGKTGLAFLKDGFVYVKNYVLDNRSIISFERVKEIEEFSFKR
protein production: failed

MKHMKTFVIIGLSNLGIHLLEDLSRLDCQIIIIDTSKELIEEYDVISTESFVVEQFTKNALKRIIPVDTDAVVIDFDDDLGKSALVTHYCNLLGLKEICVKTENRDDAEILKTLGATKIIFPSKDAARRLTPLLVSPNLSTYNIIGYDIIVAETVIPKEYVGKTLFEADLRRECGITVIAVRNLSNSRYEFVDGDYFFLKDDKIVICGKPDSIENFTNNKDLIKDLISGSKEDENLNKDAEKKSRFLGIFNFMKIFQKDRKDN
protein production: failed

MKHSLSIIFILIAAMMWGTTGTAQVFAPAEAHPIIIGASRLAVGGLALFIFVMAQRKFQLRGWPVLPTFIAALSMAAYQPFFFSAVSITGVAVGTVVAIGSAPIIAGLLDWVIQRKPPGPTWGIATILAIAGCLLLTLPGEEVTVSPVGFLLAIGAGLSFAVYTAASKKLLQQQPSEAVVAVVFSLSALFLVPLFFLYDLSWLTEFRGIIVVLHLGIVATAIAYLLFTRGLTGVASSTAVTLALAEPLTAALLGVFLVGEALSFIAWGGVLLLLLGLAVLTGFTGARTPSTRFMRNKKDKVNVE
protein production: failed

MKHVGDDVVAIISQDGKVIREIPLTGHKGNEQFTIKGKGAQYNLMEVDGERIRIKEDNSPDQVGVKMGWKSKAGDTIVCLPHKVFVEILEHHHHHH
protein production: not failed

MKIAALYDIHGNYPALKEVLKQVKKLSPDLVVLGGDLIAGPMPLETLSLLKHVSTTFKTVGIMGNNDQDIVDIYAKKRVGLSRKATEQLTWIANQLSYKQVSFLRNLLPSISIGNYFFCHAVKNDNTTVFSPQQNKAYIETLFKGVQESYIICGHTHIQFELSLPNKKIINAGSIGMPFSNQFGAQWLWLDDNRIEYKRTIFNQQAAIQLISQTEYPFKNEFLEHHHHHH
protein production: failed

MKIAIFRTSGVIAPFVIDGYITGFREAGHEVWGIDLTTEGLDFTKLRSFQPDFVLAYGYNGFCKSPNGYALRELGIPLVSLHYDCPYLARNDGLSDEINNFPEYYYEFVWDDSFLELLRNDGTENCDHILLATDPTWFHPIALDSPCIESSVCFVGGVSAHVEQNCVGIELVDKFIDEVIYSKLHNMEVPTFEICKQFFSTPEYRAVHQVYTTEPASFWQMIYYKIHGKGSTVMRKYILDSIEGVDLHIYGGGNGWDKPNAIFHEKVPYGTELSKAFQQYALNLNISSLQLEKAINNRPFDAYASKAFMLNDYRDDMIRAFPAHWEEITFRNLDEFAEKGEYFLTHAQERRELVADLYDHTLRHHTYRHRADQIVEKLAAINFLNRPQQPKTQTSRSILAIDEDNYADYCKDLNTCPVCGGTEFNLKFSFLGHEDYKSTFDQCMDCQAVFLNPCPTDEYLTKFYNEIYYSPQHRQKMGWDPNLDTPNPNSFFLHQRRMDFVEKYVPEELKFPRGKLLDIGCSTGAFLWEASLRYWDVCGIEISDKAAEVAREKYGLAVTTGTLLESSFDDETFDVVTAWDVLEHIANPAPFLTILRRILKQGGLILLNTPNINSADAAYAGEQWRHLDAPLHPVLYDFISIRILLKKYGFQCLEVSSGDEYHGQMKIAARKA
protein production: failed

MKICLIDETGTGDGALSVLAARWGLEHDEDNLMALVLTPEHLELRKRDEPKLGGIFVDFVGGAMAHRRKFGGGRGEAVAKAVGIKGDYLPDVVDATAGLGRDAFVLASVGCRVRMLERNPVVAALLDDGLARGYADAEIGGWLQERLQLIHASSLTALTDITPRPQVVYLDPMFPHKQKSALVKKEMRVFQSLVGPDLDADGLLEPARLLATKRVVVKRPDYAPPLANVATPNAVVTKGHRFDIYAGTPVLEHHHHHH
protein production: not failed

MKIDKLFIKSIILTFLSMNLLFMILIMLGDLFVNLLNYLEKNIGLKDILYIYYLYLPKAFSDGVALSFLFAISNLIGNLSMRNEIIGLFSCGVPLTRILKPIILISIFISVVLFFFDNYLVIDTIARRDVLIKNSIGDSRSGDKTIIIRDFAREIYNIKSYDIDENTFANLMIIIKDNKDEFQTRYDINKAEWKDNKWRLYGIREFVKVGKKIKENAYDVLDGTGIIKLAPDYIRTVMLSSKALNFTKLINWISFLKAERLNYSDAFFDLLNRIFFSFRLILLSFTVGFIALALKKNIFILSLLNSIAFAVVYVISIVIFNFLADLGYLHIYIASSFTTIFFLIINFFVYRIVRK
protein production: failed

MKIDVVTIFPAYLDPLRQSLPGRAIASGLVDLQVHDLRRWTYDVHHSVDDSPYGGGPGMVMKAPVWGEALDEICSAETLLVVPTPAGSLFDQATAQRWSAEQHLVFACGRYEGIDQRVAEDSARRMRVEEVSIGDYVLPGGESAAVVMIEAVLRLLTGVLGNPASHQEDSFSPELDRLLEGPSYTRPPSWRGLDVPEILLSGDHARIATWRREVSLRRTRERRPDLAPPE
protein production: failed

MKIHLGLVVLVFAAMIAAPRSHAADSSAPRVALVIGNSKYPDADKPLSQAVSDARELADDLKRAGFDAELGEDLSGDAMRRAFDRLYQRTKPGAAALVFFSGFGIQSGRQSYLIPADAQIWTEPDVRRDGIALETVLNELNSRGASVKIALIDASRRNPFERRFRSFSAGLAPVIAPSGSLVMYAAALSAVVTDNDSARSPFVTALREEVRAAGRSAEEAFNRARTAVTRASRGEQVPWISSSLAEDFVFTPGAKADKPAVAEPAKQPAAAAPAPAESAKPPTAPAETKPPQAAEAKPSTSRDDDKLVLALASDPTVKSLTAQIADKPSDGNAYYRRGQVYASKGAYRSAIKDFDEAIRLNGKDVEAYNNRCWVRTVIGELEPALADCDQALQLRSNFVDALDSRGLLHLKSGRDKAAIADFDAALKVNPRLTSSLYGRGLARKRIGLASEGEIDLTTAKKLDPNIGKEFAGYGVP
protein production: failed

MKIIVKTLKGIRFEIEVKPNDSVAEVKKNIETVMGASEYPAAQQILIHKREKLRDETTMEANKVFDKSVIAIIITKGCLEEMEKQNPPLFQMIRHNSAGFVPVLNKESFERDNELAQPEEDLLQLQVTAVDDEAINRVLFYS
protein production: failed

MKIKATIERVPGGMMIIPLFLGAALNTFAPGTAEFFGGFTGALITGTLPILGVFIFCVGATIDFRSSGYIARKGITLLLGKIGFAALLGVIAAQFIPDDGIQSGFFAGLSVLAIVAVMNETNGGLYLALMNHMGRKEDAGAFAFISTESGPFMTMVTFGVTGLAAFPWETLAATVIPFLLGCILGNLDHDLRDLFSKVVPAIIPFFAFSLGNTLNFGMLIQSGLLGIFIGVSVVILSGSSLFLLDRFIARGDGVAGVAASSTAGAAVAVPYALAEANASFAPVAESATAIIATSVIVTSLLTPLATVWVDKKIKQKKRRTPPPKNQMTIN
protein production: failed

MKILAISGSARRNSTNTAMLQAVRAVAPGEIEISIFDGVGRLPVFSPDLEGESLPEVVRNLIDVIAQSDGVIIASPEYVRSIPGGLKNAIDWLVSGDDIVHKPIALLHASHRGDDMLAGLRTVLATITDRFAGDIFLRLPLMKLEPADVLKAVEAAENRSRVQAYLQAFSAYCMADSKTA
protein production: failed

MKILLIGASGTLGSAVKERLEKKAEVITAGRHSGDVTVDITNIDSIKKMYEQVGKVDAIVSATGSATFSPLTELTPEKNAVTISSKLGGQINLVLLGIDSLNDKGSFTLTTGIMMEDPIVQGASAAMANGAVTAFAKSAAIEMPRGIRINTVSPNVLEESWDKLEPFFEGFLPVPAAKVARAFEKSVFGAQTGESYQVY
protein production: not failed

MKILLKSLVISASLCSPFVLANSEAHSDYLKGTAYLNQDNYKEAITWLTSAANNGSIEAQNKIGTIYAKGIGTEANTQLATQYFLKAAANQSSMAYYNLGKIYESEEKYSTSIDWYNKAIEENNSNAMNNLADLYLHGKGLVQNTHQAELLYIQAAELGNATAMRNLGFLYTNNKEVKQDMSKAYFWFNLAAEKDFPDADKYRDYTGKKLSKSKRIKVQNEALEWLEQHNS
protein production: failed
